# Reference: patent US20230212279A1, “TREATMENT AND PREVENTION OF DISEASE CAUSED BY TYPE IV COLLAGEN DYSFUNCTION” (Singapore Health Services PTE, LTD., priority 2020, published 2023)
# “Also recorded” adds a separate entry of the source.
# T1: mouse IL11 receptor IL11RA1 (mouse, UniProt Q64385 24-432)
# T1 construct: whole, on cells; Endogenous protein detected in tissue sections; also called IL-11Rα
# T1 sequence (looked up): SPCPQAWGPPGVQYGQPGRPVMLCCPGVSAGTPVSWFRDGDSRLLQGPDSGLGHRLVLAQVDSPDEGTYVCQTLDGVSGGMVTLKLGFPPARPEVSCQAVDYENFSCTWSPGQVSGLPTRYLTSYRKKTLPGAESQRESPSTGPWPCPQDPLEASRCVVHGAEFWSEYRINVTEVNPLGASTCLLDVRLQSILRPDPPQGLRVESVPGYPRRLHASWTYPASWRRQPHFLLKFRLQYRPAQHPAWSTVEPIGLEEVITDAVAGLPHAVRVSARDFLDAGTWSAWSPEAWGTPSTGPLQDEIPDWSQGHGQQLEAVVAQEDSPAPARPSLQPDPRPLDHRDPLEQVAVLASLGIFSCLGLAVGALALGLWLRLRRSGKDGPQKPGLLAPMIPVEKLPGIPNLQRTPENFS
# B1: X203: mouse anti-mouse IL-11 IgG, neutralizing IL11 antibody; VH SEQ ID NO:22, VL SEQ ID NO:23 (antibody, V domains shown)
# VH: EVQLQQSGPELVKPGASVKIPCKASGYTFTDYNMDWVKQSHGKSLEWIGDINPHNGGPIYNQKFTGKATLTVDKSSSTAYMELRSLTSEDTAVYYCARGELGHWYFDVWGTGTTVTVSS
# VL: DIVLTQSPASLAVSLGQRATISCRASKSVSTSGYSYIHWYQQKPGQPPKLLIYLASNLDSGVPARFSGSGSGTDFTLNIHPVEEEDAATYYCQHSRDLPPTFGGGTKLEIK
# B2: interferon-gamma: interferon-gamma (IFNγ) (protein, UniProt P01579 24-161, looked up)
# Interferon gamma: QDPYVKEAENLKKYFNAGHSDVADNGTLFLGILKNWKEESDRKIMQSQIVSFYFKLFKNFKDDQSIQKSVETIKEDMNVKFFNSNKKKRDDFEKLTNYSVTDLNVQRKAIHELIQVMAELSPAAKTGKRKRSQMLFRG
# B3: anti-IL11RA antibody X209 (antibody, V domains shown)
# VH: QVQLQQPGAELVRPGSSVKLSCKASGYTFTNYWMHWLKQRPVQGLEWIGNIGPSDSKTHYNQKFKDKATLTVDKSSSTAYMQLNSLTSEDSAVYYCARGDYVLFTYWGQGTLVTVSA
# VL: DIVLTQSPATLSLSPGERATLSCRASQSISNNLHWYQQKSHEAPRLLIKYASQSISGIPARFSGSGSGTDFTLSFSSLETEDFAVYFCQQSYSWPLTFGQGTKLEIK
# notes: also called Enx209; anti-IL11RA (X209, Aldevron)
# Experiments:
# [1] = system: rheumatoid synovial cells; conditions: rheumatoid synovial cells upon treatment; cited from earlier work
# Col4a3-/- mice [2] = conditions: cited from earlier work
# [3] = system: kidneys of Col4a3-/- mice; experiment: Treatment study: kidney fibrosis (renal collagen content, Masson's Trichrome staining); assay type: in vivo, mouse; conditions: 20 mg/kg IP 2x/week from 6 weeks for 2.5 weeks; vs IgG
# Method: (§1) Col4a3^−/− (Col4a3^tm1Dec) mice were purchased from The Jackson Laboratory (https://www.jax.org/strain/002908). Mice were housed in temperatures of 21-24° C. with 40-70% humidity on a 12 h light/12 h dark cycle and provided with food and water ad libitum. For treatment study, Col4a3^−/− were administered 20 mg/kg of anti-IL11 (X203) or IgG isotype control (11E10) by intraperitoneal (IP) injection starting from 6 weeks of age twice a week for 2.5 weeks; wild-type littermates were used as controls. Mice were sacrificed for blood and kidney collection when they were 8.5-week-old. For lifespan study, IgG/X203 was administered to 6-week-old Col4a3^−/− (2×/week) until death ensued.
# Kidney tissues were fixed for 48 hours at RT in 10% neutral-buffered formalin (NBF), dehydrated, embedded in paraffin, and sectioned at 7 μm. Transverse kidney sections were then stained with Masson's Trichrome according to standard protocol. Images of the sections were captured by light microscopy and blue-stained fibrotic areas were semi-quantitatively determined with Image-J software (color deconvolution-Masson Trichrome) from the whole kidney area (100× field, n=4 kidneys/group). Treatment and genotypes were not disclosed to investigators performing the histology and generating semi-quantitative readouts.
# [4] = system: kidneys of Col4a3-/- mice; experiment: Treatment study: Wilms' Tumor 1 immunohistochemistry (podocytes); assay type: in vivo, mouse; conditions: 20 mg/kg IP 2x/week from 6 weeks for 2.5 weeks, vs IgG
# Method: as §1
# (§2) Kidneys were fixed in 10% neutral-buffered formalin (NBF), paraffinized, cut into 7 μm sections, incubated with primary antibodies overnight and visualized using an ImmPRESS HRP anti-rabbit IgG polymer detection kit (MP-7401, Vector Laboratories) with ImmPACT DAB Peroxidase Substrate (SK-4105, Vector Laboratories). Quantification of WT^+ve cells were performed in a blinded fashion from 4 images (200× field)/kidney (n=3-4 kidneys/group).
# [5] = system: kidneys of Col4a3-/- mice; experiment: Treatment study: renal mRNA expression by qPCR; assay type: in vivo, mouse; conditions: 20 mg/kg IP 2x/week from 6 weeks for 2.5 weeks
# Method: as §1
# Total RNA was extracted from snap-frozen kidney tissues using Trizol (Invitrogen) followed by RNeasy column (Qiagen) purification. cDNAs were synthesized with iScript™ cDNA synthesis kit (Bio-Rad) according to manufacturer's instructions. Gene expression analysis was performed on duplicate samples with either TaqMan (Applied Biosystems) or fast SYBR green (Qiagen) technology using StepOnePlus™ (Applied Biosystem) over 40 cycles. Expression data were normalized to GAPDH mRNA expression and fold change was calculated using 2^−ΔΔct method. The sequences of specific TaqMan probes and SYBR green primers are available upon request.
# Col4a3-/- mice [6] = experiment: Treatment study: renal function by colorimetric assays (BUN, creatinine, urinary albumin:creatinine); assay type: in vivo, mouse; conditions: 20 mg/kg 2x/week from week 6; study end 8.5 weeks of age; vs IgG
# Method: as §1
# The levels of blood urea nitrogen (BUN) and creatinine in mouse serum were measured using Urea Assay Kit (ab83362, Abcam) and Creatinine Assay Kit (ab65340, Abcam), respectively. Urine albumin and creatinine levels were measured using Mouse Albumin ELISA kit (ab108792, Abcam) and Creatinine Assay Kit (ab204537, Abcam), respectively. All ELISA and colorimetric assays were performed according to the manufacturer's protocol.
# [7] = system: kidneys of Col4a3-/- mice; experiment: Treatment study: Western blot of kidney protein extracts; assay type: in vivo, mouse; conditions: 20 mg/kg IP 2x/week from 6 weeks for 2.5 weeks; vs IgG
# Method: as §1
# Western blot was carried out on total protein extracts from mouse kidney tissues. Kidneys were lysed in radioimmunoprecipitation assay (RIPA) buffer containing protease and phosphatase inhibitors (Thermo Scientifics), followed by centrifugation to clear the lysate. Protein concentrations were determined by Bradford assay (Bio-Rad). Protein lysates were separated by SDS-PAGE, transferred to PVDF membrane, and subjected to immunoblot analysis for various antibodies as outlined in the main text, figures, or and/or figure legends. Proteins were visualized using the ECL detection system (Pierce) with the appropriate secondary antibodies: anti-rabbit HRP or antimouse HRP.
# [8] = system: mice homozygous for the Col4a3tm1Dec mutation; experiment: Survival in mouse model of Alport syndrome (Example 1); assay type: in vivo; conditions: 20 mg/kg intraperitoneal, biweekly, from 6 weeks of age until mortality
# Excerpt: 129-Col4a3^tm1Dec/J mice were obtained from The Jackson Laboratory (Stock No:002908; COL4A3 KO). The mice comprise the Co/4a3^tm1Dec mutation described e.g. in Cosgrove et al., Genes Dev. (1996) 10:2981-2992, which is hereby incorporated by reference in its entirety. 129-Col4a3^tm1Dec/J mice comprise a targeted mutation to Col4a3, resulting in progressive glomerulonephritis with microhematuria and proteinuria, and mice homozygous for the mutation typically die at about 8.5 weeks.
# From 6 weeks of age, mice homozygous for the Co/4a3^tm1Dec mutation were administered biweekly by intraperitoneal injection of 20 mg/kg of Enx203, or an isotype-matched control antibody, until mortality.
# Col4a3-/- mice [9] = experiment: Treatment study in Col4a3-/- mice: body weight and kidney weight; assay type: in vivo, mouse
# Method: as §1
# Col4a3-/- mice [10] = experiment: Lifespan study in Col4a3-/- mice (Example 2); assay type: in vivo, mouse; conditions: 20 mg/kg 2x/week from 6 weeks of age until death
# Method: as §1
# Statistical analyses were performed using GraphPad Prism software (version 8). Statistical significance between control and experimental groups were analysed by twosided Student's t tests or by one-way ANOVA as indicated in the figure legends. P values were corrected for multiple testing according to Tukey when several conditions were compared to each other within one experiment. Comparison analysis for two parameters from two different groups were performed by two-way ANOVA. Survival curves were analyzed by Gehan-Breslow-Wilcoxon test. The criterion for statistical significance was P<0.05.
# [11] = target: T1, mouse IL11 receptor IL11RA1; experiment: immunohistochemistry on mouse kidney sections (wild-type vs Il11ra1-/-)
# Excerpt: FIGS. 2A to 2E. […] (2A-2C) Renal (2A) II11 RNA and (2B-2C) IL11 protein expression in wildtype and Col4a3^{-/-} mice. (2D) Immunohistochemistry staining of IL11RA with anti-IL11RA (X209) or IgG (11E10) as control on the kidneys of wild-type and II11ra1^{-/-} mice (scale bars, 20 μm). (2E) Comparison of II11ra1 and gp130 expression in mouse kidney cells based on single cell transcriptomic analysis by Park et. al.¹⁶. (2A) Data are shown as box-and-whisker with median (middle line), 25th-75th percentiles (box) and min-max values (whiskers), (2C) data are shown as mean±SD; 2-tailed Student's t-test. FC: fold change.
# as §2
# [12] = treatment of 4-week-old mice, prior to onset of proteinuria and tubulointerstitial fibrosis
molecule,measurement,setting,value
"COc1ccc2c(c1)c(CC(=O)O)c(C)n2C(=O)c1ccc(Cl)cc1 [indomethacin, reference compound]",expression of IL-11,[1],reduction
CCOC(=O)[C@H](CCc1ccccc1)N[C@@H](C)C(=O)N1[C@H](C(=O)O)C[C@@H]2CCC[C@@H]21 [ramipril],effect of delayed treatment,Col4a3-/- mice [2]; treatment delayed until after proteinuria was established (6-week-old mice),ineffective; also recorded: no beneficial effect
same,kidney dysfunction,Col4a3-/- mice [2]; [12],attenuated
same,lifespan,Col4a3-/- mice [2]; [12],prolonged
B1,kidney fibrosis by biochemical and histological assessments,[3],significantly less
same,Wilms' Tumor 1 (WT1) staining,[4],greater staining
same,number of WT1-positive cells (podocytes),[4]; blinded quantification,restored towards normal; also recorded: significant (P=0.0002) restoration
same,CC chemokine CcI2 mRNA,[5]; vs IgG,diminished
same,CC chemokine CcI5 mRNA,[5]; vs IgG,diminished
same,Tnfα expression,[5]; vs IgG,reduced
same,proinflammatory interleukin II1b mRNA,[5]; vs IgG,diminished
same,proinflammatory interleukin II6 mRNA,[5]; vs IgG,diminished
same,renal level of Col1a1 gene expression,[5]; vs IgG,reduced
same,renal level of Col1a2 gene expression,[5]; vs IgG,reduced
same,renal level of Col3a1 gene expression,[5]; vs IgG,reduced
same,renal level of Fn gene expression,[5]; vs IgG,reduced
same,renal level of II11 gene expression,[5]; vs IgG,reduced
same,renal level of Tgfb1 gene expression,[5]; vs IgG,reduced
same,renal level of myofibroblast marker Acta2 gene expression,[5]; vs IgG,reduced
same,tubule damage indicator Kim1 mRNA,[5]; vs IgG and wild-type,restored
same,tubule damage indicator Ngal mRNA,[5]; vs IgG and wild-type,restored
same,serum blood urea nitrogen (BUN),Col4a3-/- mice [6],markedly lowered
same,serum creatinine (Cr),Col4a3-/- mice [6],markedly lowered
same,urinary albumin:creatinine ratio (ACR),Col4a3-/- mice [6],markedly lowered
same,Caspase 3 activation,[7],reduced
same,ERK phosphorylation in kidneys,[7],largely diminished
same,Podocin protein level (immunoblotting),[7],restored towards normal
same,STAT3 phosphorylation in kidneys,[7],largely diminished
same,Wilms' Tumor 1 protein level (immunoblotting),[7],restored towards normal; also recorded: Preservation of podocytes
same,alpha-smooth muscle actin (αSMA) protein level (reduction seen on transcript),[7],confirmed at the protein level
same,degree of TGFβ upregulation in the kidneys,[7],significantly reduced
same,fibronectin protein level (reduction seen on transcript),[7],confirmed at the protein level
same,increase in survival relative to mice treated with isotype-matched control antibody,[8],up to 40%
same,kidney mass,"Col4a3-/- mice [9]; 20 mg/kg IP 2x/week from 6 weeks for 2.5 weeks, vs IgG",preserved
same,"total body weight loss, as percentage of starting body weight","Col4a3-/- mice [9]; 20 mg/kg IP 2x/week from 6 weeks of age for 2.5 weeks, end of study, IgG control 30%, P=0.0003",17%
same,median lifespan,"Col4a3-/- mice [10]; IgG control 62.5 days, P=0.0015",88.5 days
same,extension of median life span,Col4a3-/- mice [10]; vs IgG control,41.6%
B2,expression of IL-11,[1],reduction
B3,binding result,[11],binds
